{"source": "patent US10295490B2", "about": "“MEMS-based calorimeter, fabrication, and use thereof” (The Trustees Of Columbia University In the City of New York, priority 2014, dated 2019)", "key": {"[1]": {"experiment": "MEMS DSC measurement of lysozyme unfolding (Example 2)", "assay_type": "physicochemical", "conditions": "0.1 M Glycine-HCl buffer pH 2.5; 1 to 20 mg/mL; scan 25-75° C. at 5° C./min", "procedure": "DSC measurements of biomolecules were performed using the calibrated microdevice, whose sample chamber and reference chamber were respectively filled with biological sample and buffer solutions, scanned in a range of temperature of interest. The temperature sensors were used to monitor the temperatures of calorimetric chambers while the device output was obtained in real time to compute the biomolecular thermal power. Before DSC measurements, the baseline in device output, i.e., the thermopile output voltage in the absence of a differential power input, during temperature scanning was measured with both calorimetric chambers filled with buffer solutions. […]\nThe thermopile output voltage as a function of temperature, corrected by baseline subtraction, was measured at varying protein concentrations ranging from 1 to 20 mg/mL (FIG. 10).\nDespite the amplitude difference of device output at various protein concentrations, they all yielded consistent estimates of the thermodynamic properties associated with the protein unfolding process. In particular, the profile shape of c was generally not influenced by protein concentration, and ΔH was consistently determined to be approximately 450 kJ/mol with a corresponding melting temperature Tm of approximately 55° C."}, "[2]": {"experiment": "MEMS AC-DSC measurement of lysozyme unfolding (Example 3)", "assay_type": "physicochemical", "conditions": "10 and 20 mg/mL in 0.1 M Glycine-HCl pH 2.5, 5° C./min, modulation 1, 5 or 10 Hz", "excerpt": "The microdevice was also placed in a thermal enclosure built in-house. […] The AC-DSC measurement was fully automated through a Lab VIEW program.\nThe MEMS AC-DSC device calibrated above was used to measure the thermal behavior of protein unfolding.\nMeanwhile, the specific heat capacity (c) of the protein as a function of temperature can be computed from the thermopile voltage amplitude (FIG. 19)."}, "[3]": {"experiment": "Polymer MEMS DSC measurement of lysozyme unfolding (Example 6)", "assay_type": "physicochemical", "conditions": "0.1 M Glycine-HCL buffer pH 2.5; scan 5 K/min; all concentrations except 1 mg/mL", "procedure": "The sample solutions and buffer were degassed overnight in a vacuum chamber built in-house, metered with Micropipettes, and introduced by a syringe pump (New Era Pump Systems, Inc., NE-1000) before the DSC measurements.\nBefore DSC measurements, the baseline, i.e., the thermopile output voltage in the absence of a differential power input, during temperature scanning in the range of interest was recorded with both calorimetric channels filled with buffer solutions. After which, characterizations of biomolecules were performed with the calorimetric channels, respectively filled with a biological sample and a buffer solutions, and scanned in the same range with pre-specified rate. The temperature sensors were used to monitor the temperatures of calorimetric channels, while the device output was obtained in real time to compute the biomolecular thermal power.\nThe calibrated polymer MEMS DSC device was then exploited to characterize protein unfolding. […]\nThe thermopile differential voltage as a function of temperature, corrected by baseline subtraction, was measured at varying concentrations ranging from 1 to 20 mg/mL (FIG. 42). […] Furthermore, the differential heat capacity as a function of temperature and the calibrated device sensitivity can be calculated from the device voltage output by Equation 7. The sample heat capacity as a function of temperature was determined by: […]"}, "[4]": {"conditions": "cited from earlier work"}}}
{"substance": "lysozyme: targeted sample biomolecule, purchased from Sigma Aldrich (lyophilized powder, protein ≥90%), used for protein unfolding DSC", "values": [{"measurement": "melting temperature Tm", "setting": "[1]", "result": "approximately 55 °C"}, {"measurement": "total change of molar enthalpy (ΔH) of lysozyme unfolding", "setting": "[1]", "result": "approximately 450 kJ/mol"}, {"measurement": "apparent melting temperature (Tm)", "setting": "[2]", "result": "55-58 °C"}, {"measurement": "melting temperature Tm", "setting": "[3]", "result": 54.71, "unit": "°C"}, {"measurement": "total enthalpy change per mole of lysozome (ΔH)", "setting": "[3]", "result": 421, "unit": "kJ/mol"}, {"measurement": "Tm of lysozyme, published data", "setting": "[4]", "result": "55-58.9 °C"}, {"measurement": "ΔH of lysozyme unfolding, published data", "setting": "[4]", "result": "377 to 439", "unit": "kJ/mol"}]}
